Source: the RNAGym collection of RNA variant scans (doi:10.7554/elife.80360)

B1: CPEB3 Ribozyme (parent)
chain: GGGGGCCACAGCAGAAGCGUUCACGUCGCGGCCCCUGUCAGAUUCUGGUGAAUCUGCGAAUUCUGCUGU

Variants of: B1
Assay: self-cleavage, relative activity (ratio to wild type); higher = more cleavage; co-transcriptional

In order of rising self-cleavage:
1. GGGGGCCACAGCAGAAGCGUUCACGUCGCGGCCCCUGUCAGAUUCUGGUGAAUCUGCGGCUUCUGCUGU  0.238
2. GGGGGCCACAGCAGAAGCGUUCACGUCGCGGCCCCUGUCAGAUUCUGGUGAAUCUGCGACUUCUGAUGU  0.288
3. GGGGGCCACAGCAGAAGCGUUCACGUCGCGGCCCCUGUCAGAUUCUGGUGAAUCUGCGACUUCUUCUGU  0.308
4. GGGGGCCACAGCAGAAGCGUUCACGUCGCGGCCCCUGUCAGAUUCUGGUGAAUCUGCGCAUUGUGCUGU  0.316
5. GGGGGCCACAGCAGAAGCGUUCACGUCGCGGCCCCUGUCAGAUUCUGGUGAAUCUGCGCAUUCUUCUGU  0.342
6. GGGGGCCACAGCAGAAGCGUUCACGUCGCGGCCCCUGUCAGAUUCUGGUGAAUCUGCGACCUCUGCUGU  0.355
7. GGGGGCCACAGCAGAAGCGUUCACGUCGCGGCCCCUGUCAGAUUCUGGUGAAUCUGCGCAGUCUGCUGU  0.359
8. GGGGGCCACAGCAGAAGCGUUCACGUCGCGGCCCCUGUCAGAUUCUGGUGAAUCUGCGACUUCUGCUGU  0.359
9. GGGGGCCACAGCAGAAGCGUUCACGUCGCGGCCCCUGUCAGAUUCUGGUGAAUCUGCUACUUCUGCUGU  0.372
10. GGGGGCCACAGCAGAAGCGUUCACGUCGCGGCCCCUGUCAGAUUCUGGUGAAUCUGCGUAUUAUGCUGU  0.377
11. GGGGGCCACAGCAGAAGCGUUCACGUCGCGGCCCCUGUCAGAUUCUGGUGAAUCUGCGCUUUCUGCUGU  0.378
12. GGGGGCCACAGCAGAAGCGUUCACGUCGCGGCCCCUGUCAGAUUCUGGUGAAUCUGCGACUACUGCUGU  0.396
13. GGGGGCCACAGCAGAAGCGUUCACGUCGCGGCCCCUGUCAGAUUCUGGUGAAUCUGCGACUCCUGCUGU  0.398
14. GGGGGCCACAGCAGAAGCGUUCACGUCGCGGCCCCUGUCAGAUUCUGGUGAAUCUGCCAUUUCUGCUGU  0.402
15. GGGGGCCACAGCAGAAGCGUUCACGUCGCGGCCCCUGUCAGAUUCUGGUGAAUCUGCGACUUAUGCUGU  0.405
16. GGGGGCCACAGCAGAAGCGUUCACGUCGCGGCCCCUGUCAGAUUCUGGUGAAUCUGCGCAUACUGCUGU  0.406
17. GGGGGCCACAGCAGAAGCGUUCACGUCGCGGCCCCUGUCAGAUUCUGGUGAAUCUGCGACUUCUGCUGG  0.418
18. GGGGGCCACAGCAGAAGCGUUCACGUCGCGGCCCCUGUCAGAUUCUGGUGAAUCUGCGACUUCUACUGU  0.438
19. GGGGGCCACAGCAGAAGCGUUCACGUCGCGGCCCCUGUCAGAUUCUGGUGAAUCUGCGACUUCCGCUGU  0.452
20. GGGGGCCACAGCAGAAGCGUUCACGUCGCGGCCCCUGUCAGAUUCUGGUGAAUCUGCGACUUCUGCUAU  0.454
21. GGGGGCCACAGCAGAAGCGUUCACGUCGCGGCCCCUGUCAGAUUCUGGUGAAUCUGCGACUUCUGCUGA  0.474
22. GGGGGCCACAGCAGAAGCGUUCACGUCGCGGCCCCUGUCAGAUUCUGGUGAAUCUGCGCAAUCUGCUGU  0.483
23. GGGGGCCACAGCAGAAGCGUUCACGUCGCGGCCCCUGUCAGAUUCUGGUGAAUCUGCGCAUUCUACUGU  0.496
24. GGGGGCCACAGCAGAAGCGUUCACGUCGCGGCCCCUGUCAGAUUCUGGUGAAUCUGCGUAUUCUGAUGU  0.503
25. GGGGGCCACAGCAGAAGCGUUCACGUCGCGGCCCCUGUCAGAUUCUGGUGAAUCUGUGAAUUCUGCUGC  0.554
26. GGGGGCCACAGCAGAAGCGUUCACGUCGCGGCCCCUGUCAGAUUCUGGUGAAUCUGUGAAUUCCGCUGU  0.556
27. GGGGGCCACAGCAGAAGCGUUCACGUCGCGGCCCCUGUCAGAUUCUGGUGAAUCUGCGCAUUCCGCUGU  0.586
28. GGGGGCCACAGCAGAAGCGUUCACGUCGCGGCCCCUGUCAGAUUCUGGUGAAUCUGCGUAUUCUGGUGU  0.592
29. GGGGGCCACAGCAGAAGCGUUCACGUCGCGGCCCCUGUCAGAUUCUGGUGAAUCUGCAAAUUCUCCUGU  0.619
30. GGGGGCCACAGCAGAAGCGUUCACGUCGCGGCCCCUGUCAGAUUCUGGUGAAUCUGCGCAUUUUGCUGU  0.633
31. GGGGGCCACAGCAGAAGCGUUCACGUCGCGGCCCCUGUCAGAUUCUGGUGAAUCUGCCAAUUCUCCUGU  0.703
32. GGGGGCCACAGCAGAAGCGUUCACGUCGCGGCCCCUGUCAGAUUCUGGUGAAUCUGCGCAUUCUGUUGU  0.727
33. GGGGGCCACAGCAGAAGCGUUCACGUCGCGGCCCCUGUCAGAUUCUGGUGAAUCUGCAAAUUCUUCUGU  0.743
34. GGGGGCCACAGCAGAAGCGUUCACGUCGCGGCCCCUGUCAGAUUCUGGUGAAUCUGCAAAUUAUGCUGU  0.748
35. GGGGGCCACAGCAGAAGCGUUCACGUCGCGGCCCCUGUCAGAUUCUGGUGAAUCUGCGCAUUCUGCGGU  0.772
36. GGGGGCCACAGCAGAAGCGUUCACGUCGCGGCCCCUGUCAGAUUCUGGUGAAUCUGCGCAUUCUGCUGU  0.788
37. GGGGGCCACAGCAGAAGCGUUCACGUCGCGGCCCCUGUCAGAUUCUGGUGAAUCUGCGUAUUCUGCGGU  0.79
38. GGGGGCCACAGCAGAAGCGUUCACGUCGCGGCCCCUGUCAGAUUCUGGUGAAUCUGCGGAUUCGGCUGU  0.835
39. GGGGGCCACAGCAGAAGCGUUCACGUCGCGGCCCCUGUCAGAUUCUGGUGAAUCUGCCAACUCUGCUGU  0.844
40. GGGGGCCACAGCAGAAGCGUUCACGUCGCGGCCCCUGUCAGAUUCUGGUGAAUCUGCGUAUUCUGCUGU  0.854
41. GGGGGCCACAGCAGAAGCGUUCACGUCGCGGCCCCUGUCAGAUUCUGGUGAAUCUGCAAAUGCUGCUGU  0.884
42. GGGGGCCACAGCAGAAGCGUUCACGUCGCGGCCCCUGUCAGAUUCUGGUGAAUCUGCCAAUUCGGCUGU  0.893
43. GGGGGCCACAGCAGAAGCGUUCACGUCGCGGCCCCUGUCAGAUUCUGGUGAAUCUGCGGAUUCUACUGU  0.895
44. GGGGGCCACAGCAGAAGCGUUCACGUCGCGGCCCCUGUCAGAUUCUGGUGAAUCUGCGUAUUCUGCUGA  0.901
45. GGGGGCCACAGCAGAAGCGUUCACGUCGCGGCCCCUGUCAGAUUCUGGUGAAUCUGCGUAUUCUGCUGG  0.903
46. GGGGGCCACAGCAGAAGCGUUCACGUCGCGGCCCCUGUCAGAUUCUGGUGAAUCUGCGCAUUCUGCUCU  0.909
47. GGGGGCCACAGCAGAAGCGUUCACGUCGCGGCCCCUGUCAGAUUCUGGUGAAUCUGCGGAAUCUGCUGU  0.916
48. GGGGGCCACAGCAGAAGCGUUCACGUCGCGGCCCCUGUCAGAUUCUGGUGAAUCUGCGGAUACUGCUGU  0.918
49. GGGGGCCACAGCAGAAGCGUUCACGUCGCGGCCCCUGUCAGAUUCUGGUGAAUCUGCGUAUUCUGCUUU  0.924
50. GGGGGCCACAGCAGAAGCGUUCACGUCGCGGCCCCUGUCAGAUUCUGGUGAAUCUGCUAAAUCUGCUGU  0.929
51. GGGGGCCACAGCAGAAGCGUUCACGUCGCGGCCCCUGUCAGAUUCUGGUGAAUCUGCAAAUACUGCUGU  0.939
52. GGGGGCCACAGCAGAAGCGUUCACGUCGCGGCCCCUGUCAGAUUCUGGUGAAUCUGCGGAGUCUGCUGU  0.941
53. GGGGGCCACAGCAGAAGCGUUCACGUCGCGGCCCCUGUCAGAUUCUGGUGAAUCUGCUAAUUCUUCUGU  0.948
54. GGGGGCCACAGCAGAAGCGUUCACGUCGCGGCCCCUGUCAGAUUCUGGUGAAUCUGCUAAUUAUGCUGU  0.951
55. GGGGGCCACAGCAGAAGCGUUCACGUCGCGGCCCCUGUCAGAUUCUGGUGAAUCUGCGAGUUCUGCUGU  0.954
56. GGGGGCCACAGCAGAAGCGUUCACGUCGCGGCCCCUGUCAGAUUCUGGUGAAUCUGCAAAUUCGGCUGU  0.955
57. GGGGGCCACAGCAGAAGCGUUCACGUCGCGGCCCCUGUCAGAUUCUGGUGAAUCUGCGUAUUCUGCUAU  0.957
58. GGGGGCCACAGCAGAAGCGUUCACGUCGCGGCCCCUGUCAGAUUCUGGUGAAUCUGCUAAUUCUACUGU  0.961
59. GGGGGCCACAGCAGAAGCGUUCACGUCGCGGCCCCUGUCAGAUUCUGGUGAAUCUGCAAAUUCUGCUUU  0.962
60. GGGGGCCACAGCAGAAGCGUUCACGUCGCGGCCCCUGUCAGAUUCUGGUGAAUCUGCAAAUUCUGCUGU  0.965
61. GGGGGCCACAGCAGAAGCGUUCACGUCGCGGCCCCUGUCAGAUUCUGGUGAAUCUGCCAAUGCUGCUGU  0.965
62. GGGGGCCACAGCAGAAGCGUUCACGUCGCGGCCCCUGUCAGAUUCUGGUGAAUCUGCUAAUUCUGGUGU  0.974
63. GGGGGCCACAGCAGAAGCGUUCACGUCGCGGCCCCUGUCAGAUUCUGGUGAAUCUGCAAAUUCUGCUCU  0.978
64. GGGGGCCACAGCAGAAGCGUUCACGUCGCGGCCCCUGUCAGAUUCUGGUGAAUCUGCGGAUUCUGUUGU  0.979
65. GGGGGCCACAGCAGAAGCGUUCACGUCGCGGCCCCUGUCAGAUUCUGGUGAAUCUGCCAAUUCUGCUGU  0.985
66. GGGGGCCACAGCAGAAGCGUUCACGUCGCGGCCCCUGUCAGAUUCUGGUGAAUCUGCAAAUUCUGCGGU  0.988
67. GGGGGCCACAGCAGAAGCGUUCACGUCGCGGCCCCUGUCAGAUUCUGGUGAAUCUGCUAAUUCUGCUGU  0.994
68. GGGGGCCACAGCAGAAGCGUUCACGUCGCGGCCCCUGUCAGAUUCUGGUGAAUCUGCGGAUUCUGCUGU  0.997
69. GGGGGCCACAGCAGAAGCGUUCACGUCGCGGCCCCUGUCAGAUUCUGGUGAAUCUGCCAAUUCUGCGGU  1.01
70. GGGGGCCACAGCAGAAGCGUUCACGUCGCGGCCCCUGUCAGAUUCUGGUGAAUCUGCGGAUUUUGCUGU  1.01
71. GGGGGCCACAGCAGAAGCGUUCACGUCGCGGCCCCUGUCAGAUUCUGGUGAAUCUGCCAAUUCUGUUGU  1.02
72. GGGGGCCACAGCAGAAGCGUUCACGUCGCGGCCCCUGUCAGAUUCUGGUGAAUCUGCUGAUUCUGCUGU  1.02
73. GGGGGCCACAGCAGAAGCGUUCACGUCGCGGCCCCUGUCAGAUUCUGGUGAAUCUGCUAAUUCUGCUGA  1.02
74. GGGGGCCACAGCAGAAGCGUUCACGUCGCGGCCCCUGUCAGAUUCUGGUGAAUCUGCGGAUUCUGCUCU  1.02
75. GGGGGCCACAGCAGAAGCGUUCACGUCGCGGCCCCUGUCAGAUUCUGGUGAAUCUGCAAAUUCUGCUGC  1.06
76. GGGGGCCACAGCAGAAGCGUUCACGUCGCGGCCCCUGUCAGAUUCUGGUGAAUCUGCUAAUUCUGCUGC  1.06
77. GGGGGCCACAGCAGAAGCGUUCACGUCGCGGCCCCUGUCAGAUUCUGGUGAAUCUGCGGAUUCUGCUGC  1.06
78. GGGGGCCACAGCAGAAGCGUUCACGUCGCGGCCCCUGUCAGAUUCUGGUGAAUCUGCCAAUUCUGCUGC  1.07
